The values that follow come from PMC5175368.

pKd: −log10 of the molar value.

This data set concerns the target PA63 (cleaved protective antigen) (Bacillus anthracis) (UniProt P13423). Nature of the data set: filter binding. Particulars: N15 and N23 = AEGIS dP.

Sequence of PA63 (cleaved protective antigen) (Bacillus anthracis) (P13423 197-764): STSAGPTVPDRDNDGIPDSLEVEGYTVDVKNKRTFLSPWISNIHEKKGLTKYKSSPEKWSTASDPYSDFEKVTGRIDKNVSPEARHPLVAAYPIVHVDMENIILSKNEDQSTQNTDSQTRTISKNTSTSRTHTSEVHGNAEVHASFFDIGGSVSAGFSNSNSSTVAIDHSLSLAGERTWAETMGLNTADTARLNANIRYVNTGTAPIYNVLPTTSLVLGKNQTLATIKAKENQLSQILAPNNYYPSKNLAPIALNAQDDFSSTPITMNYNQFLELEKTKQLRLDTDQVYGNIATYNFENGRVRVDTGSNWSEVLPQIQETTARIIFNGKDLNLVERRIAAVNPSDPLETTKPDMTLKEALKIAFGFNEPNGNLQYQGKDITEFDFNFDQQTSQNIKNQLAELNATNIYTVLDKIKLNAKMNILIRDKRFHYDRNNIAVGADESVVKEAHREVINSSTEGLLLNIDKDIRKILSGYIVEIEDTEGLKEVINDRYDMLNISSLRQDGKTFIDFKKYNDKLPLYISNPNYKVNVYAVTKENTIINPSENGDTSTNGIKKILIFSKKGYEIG

Take “CGTGTAAACCATGGNGTGAGTGNGTAGGTGTCCTGAGGAGGT [PA1T4A6A7]”: the pKd was 5.64.

One may read the pKd as the Kd on a negative log10 scale, so that one unit is a factor of ten. Low readings indicate a large Kd, high ones a small Kd.
